Columns and labels:
[1] = tested on: GFPβ1-10 expressing MCF7c#G7 cells; details: increasing amounts of peptide (FIG. 6)
Experimental: (§3) Cell morphology and cell viability. Cell morphology was determined by FACS analysis of FSC and SSC. Gates were set manually for viable cells using untreated control cells as reference and the fraction of viable cells compared to non-viable cells was determined for each sample. Data are presented as the relative difference compared to non-treated control cells. Viable cells per sample were determined by measuring number of viable cells that were analyzed per second by FACS. Gates for viable cells were set manually using untreated control cells as reference. Data are presented as the relative difference compared to untreated control cells.

[2] = tested on: GFPβ1-10 expressing H1299c#G3 cells; assay: split GFP fluorescence complementation transduction assay (FACS); format: cell-based, human; details: dose-dependent comparison, up to 60 μM, FACS (FIG. 4, 5)
Experimental: (§1) Peptide transduction. All transduction experiments were performed in 48-well plates. An optimized protocol was established. First, 15,000 or 20,000 cells were plated in each well. Next day, the indicated peptides were pipetted into eppendorf tubes. Transduction buffer (60% OptiMEM and 40% PBS) was added to peptide (100 μl total volume), directly mixed by pipetting up and down five times and then immediately transferred to cells. All pipetting steps were done in a laminar flow cell culture hood and standardized to 15 min for each plate before transferring the plate of cells to a 37° C. CO2 incubator for 1.5 h before addition of 500 μl DMEM supplemented with 10% FBS and another incubation round for 3.5 h in the 37° C. CO2 incubator (alternatively cells were incubated 2 h with peptides and another 4 h with DMEM, 10% FBS (FIG. 8b, c, d). For the transduction time-course, cells were incubated with peptides in transduction buffer until indicated time-points. All cells were trypzinized and collected in 250 μl OptiMEM without phenol red and analyzed by FACS (GFP, FSC/SSC). 4000 viable cells were analyzed per sample. Data is presented as fold change in fluorescence compared to non-treated cells.
To address these problems, the disclosure provides a self-assembling, bimolecular or split GFP fluorescence complementation system that was originally designed to tag and monitor proteins. GFP is composed of 11 β-strands that form a barrel structure allowing for peptidyl backbone cyclization and formation of a fluorescent chromophore. […] Importantly, co-incubation of GFPβ1-10 with the GFPβ11 peptide in trans efficiently reconstitutes GFP fluorescent chromophore bond and GFP fluorescence (FIG. 1a). To study PTD-mediated delivery, cell lines were generated that constitutively expressed the non-fluorescent GFPβ1-10 fragment and treated them in trans with a GFPβ11-PTD/CPP peptide to restore GFP fluorescence.
Cell clones of various human cell lines constitutively expressing the non-fluorescent large GFPβ1-10 fragment, including H1299 non-small cell lung carcinoma, HaCaT immortalized keratinocytes, and MDA-MB-231 and MCF7 breast carcinomas, and assayed for reconstituted intracellular GFP fluorescence after treatment with transducible GFPβ11-PTD/CPP peptides by FACS (FIG. 1a). Starting with human H1299 cells, known to be a good model for PTD/CPP-mediated uptake, two GFPβ1-10 expressing clones were generated (c#G3 and c#G4) (FIG. 8a). GFPβ1-10 expressing H1299c#G3 cells were treated for 1.5 h with increasing amounts of transducible GFPβ11-TAT peptide (0-60 μM), followed by an additional 3.5 h in DMEM supplemented with 10% FBS. At 5 h post-addition of GFPβ11-TAT peptide, cells were trypsinized and live cell assayed by FACS.

[3] = tested on: GFPβ1-10 expressing H1299c#G3 cells; format: cell-based, human; details: FACS FSC/SSC and viable cell number relative to untreated control cells
Description: Cell morphology and cell viability.

[4] = tested on: GFPβ1-10 expressing HaCatc#G7 cells; details: increasing amounts of peptide (FIG. 6)
Experimental: as §3

[5] = tested on: GFPβ1-10 expressing HaCatc#G7 cells; assay: split GFP fluorescence complementation transduction assay (FACS); format: cell-based, human; details: increasing amounts of peptide (FIG. 6)
Experimental: (§2) Cell culture, transfections and immunoblots. H1299, MCF7, MDA-MB-231 and HaCat cells were maintained in DMEM supplemented with 10% FBS, 100 U/ml penicillin, and 100 U/ml streptomycin. H1299c#G3, H1299c#G4, MCF7c#G7, MDA-MB-231c#G3 and HaCaTc#G7 cells were generated by transfecting cells with pCMV-mGFPβ1-10 and subsequently grown under hygromycin selection. Hygromycin resistant cells were then treated with GFPβ11-TAT and directly after, individual, transiently fluorescent clonal cells were isolated by FACS sorting. Clones were expanded and tested for stable GFPβ1-10 expression. H1299c#G3, H1299c#G4, MCF7c#G7, MDA-MB-231c#G3 and HaCaTc#G7 cells were maintained in DMEM supplemented with 10% FBS, 100 U/ml penicillin, 100 U/ml streptomycin and 80 or 100 ug/ml hygromycin. Transient transfections of siRNA or plasmid DNA were performed using Lipofectamine 2000 according to standard protocol. Immunblots were performed using 10% SDS-PAGE, semi-dry transfer (BioRad) and developed on ChemiDoc Imager (BioRad).
as §1, with “CO2 incubator for 1.5 h before addition of 500 μl DMEM supplemented with 10% FBS and another incubation round for 3.5 h in the 37° C.” left out

[6] = tested on: GFPβ1-10 expressing MDA-MB-231c#G3 cells; assay: as above; format: cell-based, human; details: increasing amounts of peptide (FIG. 6)
Experimental: as §2
as §1, with “CO2 incubator for 1.5 h before addition of 500 μl DMEM supplemented with 10% FBS and another incubation round for 3.5 h in the 37° C.” left out

[7] = tested on: GFPβ1-10 expressing MCF7c#G7 cells; assay: as above; format: cell-based, human; details: increasing amounts of peptide (FIG. 6)
Experimental: as §2
as §1, with “CO2 incubator for 1.5 h before addition of 500 μl DMEM supplemented with 10% FBS and another incubation round for 3.5 h in the 37° C.” left out

[8] = tested on: GFPβ1-10 expressing MDA-MB-231c#G3 cells; details: increasing amounts of peptide (FIG. 6)
Experimental: as §3

RDHMVLHEYVNAAGIT-GGSGGC-(S-S)-CGG-RKKRRQRRR-(PEG)6-GFWFG (disulfide bond, (PEG)6-GFWFG) [GFPβ11-(S-S)-TAT-P6-GFWFG]
cytotoxicity [1]: Low to no cytotoxicity
GFP fluorescence / transduction compared to parental GFPβ11-(S-S)-TAT [2]: four-fold increase
cytotoxicity / morphological changes [3]: absence of any detectable cytotoxicity
cytotoxicity [4]: Low to no cytotoxicity
GFP complementation compared to parental GFPβ11-(S-S)-TAT control peptide [5]: significantly enhanced GFP complementation
GFP complementation compared to parental GFPβ11-(S-S)-TAT control peptide [6]: significantly enhanced GFP complementation
GFP complementation compared to parental GFPβ11-(S-S)-TAT control peptide [7]: significantly enhanced GFP complementation
cytotoxicity [8]: Low to no cytotoxicity

— patent US20170275650A1, “ENDOSOMAL ESCAPE DOMAINS FOR […] OF MACR[…] CELLS” (priority 2014, published 2017)
